Test results: the supplement of paper PMC7125110
± gives the standard error. This sample holds only a part of the variants without activity.

B1: glmS ribozyme (parent)
chain: AUAAAAGCGCCAGAACUACAGAAAUGUAGUUGACGAGGAGGAGGUUUAUCGAAUUUUCGGCGGAUGCCUCCAAA

Variants of: B1
Assay: self-cleavage kobs at 10000 uM GlcN6P; higher = faster cleavage; RNA array
Conditions: with glucosamine-6-phosphate
Summary of the method: (§1)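 Barcoded ribozyme variants, transcribed in situ by E. coli RNA polymerase on sequenced MiSeq chips, were followed via a hybridised Cy3 probe at 37 °C. Glucosamine-6-phosphate ranged from 40 μM to 10 mM in HEPES/KCl/Mg(OAc)2 buffer. kobs came from decay fits to per-tile medians, and kcat and KM from weighted Michaelis–Menten fits.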

Variant | self-cleavage kobs at 10000 uM GlcN6P
A36U U49A A53U | 3.89e-05 ± 9.3e-06 s⁻¹
G43U G59C C68A | < 1e-05 s⁻¹
G13A U57G C70U | 3.53e-05 ± 1.7e-05 s⁻¹
A15G U65A G66U | 0.000274 ± 4.1e-05 s⁻¹
A23C C68A | 5.82e-05 ± 2.4e-05 s⁻¹
C8A G29U A52U U55A C71G | < 1e-05 s⁻¹
A42G G59U | 4.33e-05 ± 9.8e-06 s⁻¹
C8A G9A C10U A33G A36G A39U U47C C58A | < 1e-05 s⁻¹
A48C C61G C70G | < 1e-05 s⁻¹
A15G G60A | 3.03e-05 ± 1.1e-05 s⁻¹
A12G G13U U56G C61U C68G C70A | 4.15e-05 ± 1.7e-05 s⁻¹
G9C U46G A53U U55G | < 1e-05 s⁻¹
A12G G51U C58G | < 1e-05 s⁻¹
G37A G38A A42C G59U | < 1e-05 s⁻¹
A33C A36C C50U C68A | < 1e-05 s⁻¹
G9A A53C G62A C70G | < 1e-05 s⁻¹
A15U G44U C71U | < 1e-05 s⁻¹
A12G G13U G60U | < 1e-05 s⁻¹
C16G G38C G40C U45A A52G | < 1e-05 s⁻¹
U30G G32A C71U | 0.00359 ± 0.0005 s⁻¹
U31G U55G U69G | 6.94e-05 ± 1.1e-05 s⁻¹
C11U A53G G60A | < 1e-05 s⁻¹
A14C G40A U47C | 0.000375 ± 7e-05 s⁻¹
G7A U31C C50U U65G | < 1e-05 s⁻¹
A14C G38U G63U C68A | 4.08e-05 ± 1.9e-05 s⁻¹

Variant | self-cleavage kobs at 10000 uM GlcN6P
U30C U46C G59U | < 1e-05 s⁻¹
U47A A53G U55A G66C | 0.000375 ± 5.9e-05 s⁻¹
C34U G63C C68G | < 1e-05 s⁻¹
A6G U31C C34G | < 1e-05 s⁻¹
G32A C34U G51C | < 1e-05 s⁻¹
A33G G37U U45C G62U | < 1e-05 s⁻¹
G7A G35A A36G | < 1e-05 s⁻¹
G13U G44C U56C | < 1e-05 s⁻¹
G7C A39C C61A C67A | < 1e-05 s⁻¹
G43C C58G C71A | < 1e-05 s⁻¹
G26U U57G | 5.83e-05 ± 2e-05 s⁻¹
G29A G32U A52G | 3.76e-05 ± 1.7e-05 s⁻¹
A15U C50U C58G | < 1e-05 s⁻¹
C10A G13U G44A | < 1e-05 s⁻¹
C16A U30C C61G | < 1e-05 s⁻¹
A39U U65A | 0.00166 ± 0.00039 s⁻¹
A14U A42G C61G | < 1e-05 s⁻¹
G26U A53C | 0.00559 ± 0.0013 s⁻¹
U45G A53G A64U | 8.08e-05 ± 1.8e-05 s⁻¹
U31A A36C | < 1e-05 s⁻¹
G35C A39U G41C C61A | < 1e-05 s⁻¹
G7U C34G G59C | < 1e-05 s⁻¹
A6C U49A | < 1e-05 s⁻¹
G13C A14G U69G | 3.8e-05 ± 1.6e-05 s⁻¹
A15G G41A U54A | 9.17e-05 ± 2.8e-05 s⁻¹

Variant | self-cleavage kobs at 10000 uM GlcN6P
G29A G43U G51A | < 1e-05 s⁻¹
A14U A42G C58A | 0.000409 ± 0.00014 s⁻¹
A39U C67G C71A | 7.84e-05 ± 1.5e-05 s⁻¹
C16U G29U G40U C50U | < 1e-05 s⁻¹
G29U G38C G44A U47C | < 1e-05 s⁻¹
G37A C50G | < 1e-05 s⁻¹
A33C G38U G41U G43A U56A | < 1e-05 s⁻¹
G37A A42C | 2.95e-05 ± 8.6e-06 s⁻¹
U55G C68A C71U | 2.99e-05 ± 1.4e-05 s⁻¹
U56C U57G G59U | < 1e-05 s⁻¹
A6G A14G A53C | 7.6e-05 ± 2.3e-05 s⁻¹
A6C G35C A52C G66U | < 1e-05 s⁻¹
C10G C16G A53G C68U | < 1e-05 s⁻¹
A12G C50U A52G U69G C71A | 3.23e-05 ± 1.6e-05 s⁻¹
A12C G29C G43C | < 1e-05 s⁻¹
A33G C34U C50G C67U | 0.000194 ± 3.6e-05 s⁻¹
C10U G38U U46A C58U | < 1e-05 s⁻¹
C16U U30G G59C | < 1e-05 s⁻¹
A12C G13U C61U G62U | < 1e-05 s⁻¹
A14U G35A A48G U54C C70G | < 1e-05 s⁻¹
G7U G13U G63U | < 1e-05 s⁻¹
C11G U30A U57G | < 1e-05 s⁻¹
A36U G40A G63U | < 1e-05 s⁻¹
C16U G26U U31C | 5.34e-05 ± 1.7e-05 s⁻¹
C11G U31G G35U A36U U49C A52U | < 1e-05 s⁻¹

Variant | self-cleavage kobs at 10000 uM GlcN6P
A15U G44U C61A | < 1e-05 s⁻¹
G9C C34A U55C | < 1e-05 s⁻¹
G38U A64U C71U | < 1e-05 s⁻¹
G37A G41U G59C G66U | < 1e-05 s⁻¹
A48C G62U C67U C71G | < 1e-05 s⁻¹
C34U G37U U46C U47A G62A | < 1e-05 s⁻¹
U54G G66U C68U | 0.000154 ± 3.1e-05 s⁻¹
C11A A12C U57G C67G | 3.81e-05 ± 1.5e-05 s⁻¹
G29U G32A A39U | 0.00055 ± 8.7e-05 s⁻¹
A6U G7C A14G U57C | < 1e-05 s⁻¹
C16U G29U C67G | 0.000292 ± 8.5e-05 s⁻¹
G7A A14G A39G C71U | 5.55e-05 ± 1.7e-05 s⁻¹
C34A U47G A52U C70A | 0.00102 ± 0.00046 s⁻¹
A12U A15G U46G | 0.00932 ± 0.0019 s⁻¹
U49C C68A | < 1e-05 s⁻¹
A15G C16U G29C | 0.00377 ± 0.00075 s⁻¹
U30C U31G C70G | 0.000168 ± 4.5e-05 s⁻¹
C16A G29C A39C | 0.000349 ± 6.1e-05 s⁻¹
C50A G62C | < 1e-05 s⁻¹
G29C A52U A53C C68G | < 1e-05 s⁻¹
G44C U45A U46G | 3.99e-05 ± 2e-05 s⁻¹
A33C A53G A64C | < 1e-05 s⁻¹
A36C A39U U55A | < 1e-05 s⁻¹
G41U G51U A53C | < 1e-05 s⁻¹
G13U C61G C68G | < 1e-05 s⁻¹

Variant | self-cleavage kobs at 10000 uM GlcN6P
A6C A12C C58G | < 1e-05 s⁻¹
A12C C16A C67U | 0.000164 ± 3.3e-05 s⁻¹
A48U U56A C68U | 7.52e-05 ± 1.8e-05 s⁻¹
C8A A15U U47C U69A | < 1e-05 s⁻¹
C8U C34A A53C C71A | < 1e-05 s⁻¹
G7C C68A C71A | < 1e-05 s⁻¹
C16U A39G G40U | 0.0008 ± 0.00026 s⁻¹
A6C G29A C34U G43U G44U | < 1e-05 s⁻¹
G44A U56A G60C C68A | < 1e-05 s⁻¹
U30G A48C | 5.11e-05 ± 1.6e-05 s⁻¹
C34U C58U | < 1e-05 s⁻¹
G13A A15U A53G G60U | < 1e-05 s⁻¹
U30C G41A U54C | < 1e-05 s⁻¹
A12U C16G G29A C67G | 0.000109 ± 2.3e-05 s⁻¹
G26U A53G U69G | 5.41e-05 ± 1.5e-05 s⁻¹
G29A U31C U54G | 0.000213 ± 6.7e-05 s⁻¹
C10A C58G G60A U69G | 5.7e-05 ± 1.6e-05 s⁻¹
A12C U31A A42G A52G | 0.000429 ± 9.6e-05 s⁻¹
A64C U65G | 4.42e-05 ± 1.1e-05 s⁻¹
G13C U49A G60U C61A | < 1e-05 s⁻¹
A14C A33U A36U G60U G62C | < 1e-05 s⁻¹
G35C A42C C70U | < 1e-05 s⁻¹
C8G U45G U55C C71A | < 1e-05 s⁻¹
G13A G44U G62U C71G | < 1e-05 s⁻¹
A33G A39U U49C C68G | < 1e-05 s⁻¹

Variant | self-cleavage kobs at 10000 uM GlcN6P
C8A A39G G41U G66U C67G | < 1e-05 s⁻¹
U27G A42U | 0.000136 ± 3e-05 s⁻¹
A14U G37C A64C | < 1e-05 s⁻¹
A6G C8U U30A G40C A64C U65A | < 1e-05 s⁻¹
G7A C10G C19A U47A G51A | < 1e-05 s⁻¹
G9A C11U U30C A52U G62U | < 1e-05 s⁻¹
A6U A36C C58G | < 1e-05 s⁻¹
C11G U31C A36C | < 1e-05 s⁻¹
G29C G40A A42G | 8.98e-05 ± 2.9e-05 s⁻¹
C8U G32A A48U A53U U55A | < 1e-05 s⁻¹
G38A G44U A53G | < 1e-05 s⁻¹
G29C A36C | < 1e-05 s⁻¹
A14C C34G A48C | < 1e-05 s⁻¹
A20U G32C | 7.58e-05 ± 2.1e-05 s⁻¹
U45G U55C G60A G63U | < 1e-05 s⁻¹
G41A G66A C68U | 3.05e-05 ± 1.3e-05 s⁻¹
C11U U31C U56C | 9.92e-05 ± 2.1e-05 s⁻¹
G9C G43C C67U | < 1e-05 s⁻¹
A15U A42U C67A | 0.000127 ± 3.2e-05 s⁻¹
G13C G38U A48U C50A | < 1e-05 s⁻¹
C16U A33G A39U | < 1e-05 s⁻¹
C16U A53G U69G | 6.58e-05 ± 1.9e-05 s⁻¹
A14U U31C U46C | 0.00011 ± 1.7e-05 s⁻¹
A48U C67G | 4.58e-05 ± 8.4e-06 s⁻¹

Variants of: B1
Assay: self-cleavage kobs at 2500 uM GlcN6P; higher = faster cleavage; RNA array
Conditions: with glucosamine-6-phosphate
Summary of the method: as §1

Variant | self-cleavage kobs at 2500 uM GlcN6P
C8A G41A U65C | < 1e-05 s⁻¹
G7A A12G G35A | < 1e-05 s⁻¹
G7A A64C C67G U69G | < 1e-05 s⁻¹
A15U G44U C71U | < 1e-05 s⁻¹
A12G G13U G60U | < 1e-05 s⁻¹
C11U A14C C16A G38U G40A C50G | 6.83e-05 ± 2.4e-05 s⁻¹
A14G A42C U49C | < 1e-05 s⁻¹
U30G G43U U45A C68U | 0.000375 ± 9.4e-05 s⁻¹
G32C A33C G37C A48C C71U | < 1e-05 s⁻¹
G9A A33U A39C A42U U46G U55A G60U A64U | < 1e-05 s⁻¹
A48C U55C G63U | < 1e-05 s⁻¹
U30G G43U A52G C67A U69G | < 1e-05 s⁻¹
C8U G32U U45C | < 1e-05 s⁻¹
A14C C34G A48C | < 1e-05 s⁻¹
A14U G32U G40U | 3.98e-05 ± 1.3e-05 s⁻¹
A15C G37U G40C | < 1e-05 s⁻¹
